Results on 13 molecules are retold here after US20260146107A1 (ALLIGATOR BIOSCIENCE, published 2026).

Residue numbers refer to the chain shown, from its start.

The term Kd denotes the constant that tells how readily two partners part at equilibrium. As a reminder, the koff is a measure of how fast the partners let go of each other. A low value points to slow dissociation. For orientation: kon means the second-order rate constant of association.

Test [1] deals with T1, biotinylated human CD40-mouse Fc (Ancell #504-030) (human, UniProt P25942 21-193, biotinylated (site not stated)).
T1 construct: Bought; also called hCD40-muIg; CD40mFc-biotin; not shown: mouse Ig Fc
T1 sequence (P25942 21-193): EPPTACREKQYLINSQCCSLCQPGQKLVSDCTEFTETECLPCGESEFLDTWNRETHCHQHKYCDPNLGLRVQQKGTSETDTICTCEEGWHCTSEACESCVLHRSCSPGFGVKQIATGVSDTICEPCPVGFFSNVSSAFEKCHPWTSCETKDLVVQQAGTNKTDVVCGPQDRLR
The experiment in a line: Octet BLI, captured CD40mFc-biotin, bsAb in solution, 1:1 fit. The protocol: Kinetic measurements were performed in the Octet RED96 platform using several different setups. […] Monomeric human CD40-His-Avi tag (Acro Biosystems #CD0-H5228), monomeric Human CEACAM5-His (R&D Systems #4128-CM-050) or monomeric Cynomolgus CEACAM5-His (Sino Biological #90891-C08H) were ½ serially diluted in 1× kinetic buffer (Sartorius) starting at 500 nM or 100 nM. […] Binding kinetics was studied in 1× kinetic buffer where association was allowed for 100 sec, 300 sec or 600 sec followed by dissociation for 100 sec, 300 sec or 3600 sec. Sensor tips were regenerated with 10 mM Glycine pH 1.7. Data generated were referenced by subtracting blank or parallel buffer blank, the baseline was aligned to the y-axis, inter-step correction by alignment against dissociation was performed and the data was smoothed by Savitzky-Golay filter in the data analysis software (v9.0.0.14). The processed data was fitted using a 1:1 Langmuir binding model with R² or X² as a measurement of fitting accuracy.
TABLE 12 Summary of kinetic profiles measured in Octet. Bispecific antibodies in solution (25-0.8 nM, 10-2 or 5-0.7 nM.) interacting with captured CD40mFc-biotin. Association was measured for 300 sec or 600 sec and dissociation was measured for 300 sec or 3600 sec
For orientation: BLI is a label-free optical method that tracks binding on a fibre tip over time.

The target in test [2] is T2, human CEACAM5, recombinant (R&D Systems #4128-CM-050) (human, UniProt P06731 35-685).
T2 construct: Bought; coated in ELISA and used as monomeric analyte in Octet; also called hCEACAM-5; Human CEACAM5-His; not shown: His tag
T2 sequence (looked up): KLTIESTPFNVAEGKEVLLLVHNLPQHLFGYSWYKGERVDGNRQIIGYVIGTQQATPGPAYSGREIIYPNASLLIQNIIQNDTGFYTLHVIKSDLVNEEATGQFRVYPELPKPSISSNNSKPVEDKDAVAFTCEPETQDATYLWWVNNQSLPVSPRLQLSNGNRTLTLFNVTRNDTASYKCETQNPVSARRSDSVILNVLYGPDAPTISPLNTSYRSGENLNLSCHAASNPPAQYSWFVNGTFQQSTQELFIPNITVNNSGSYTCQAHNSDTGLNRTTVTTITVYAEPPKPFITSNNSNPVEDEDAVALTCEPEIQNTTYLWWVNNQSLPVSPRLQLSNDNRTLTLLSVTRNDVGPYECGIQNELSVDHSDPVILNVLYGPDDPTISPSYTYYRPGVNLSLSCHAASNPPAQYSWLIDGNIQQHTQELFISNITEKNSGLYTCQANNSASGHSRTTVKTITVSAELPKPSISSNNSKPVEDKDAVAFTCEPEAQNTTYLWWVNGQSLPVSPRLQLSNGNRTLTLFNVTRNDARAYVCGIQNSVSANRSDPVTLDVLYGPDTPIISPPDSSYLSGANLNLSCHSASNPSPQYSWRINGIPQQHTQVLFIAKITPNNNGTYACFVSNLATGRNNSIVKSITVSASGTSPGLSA
The experiment in a line: ELISA, antigen coated at 0.5 µg/mL, IgG1 antibody at 10 µg/ml, anti-human kappa-HRP, luminescence. The protocol: (§1) 96-well plates were coated with 0.5 μg/mL antigen, hCEACAM-5 (4128-CM-050, R&D Systems), hCEACAM-1 (2244-CM-050, R&D Systems), hCEACAM-6(3934-CM-050, R&D Systems) or CEACAM-8 (9639-CM-050, R&D Systems) in PBS over night at 4° C. After washing with PBS/0.05% Tween 20 (PBST), the plates were blocked with PBST, 2% BSA for at least 30 minutes at room temperature before a second round of washing. […] After washing, plates were incubated with 50 μl detection antibody (0.5 μg/ml HRP conjugated goat anti human-kappa light chain, #STAR127P, AbD Serotec). Finally, a final round of washing was performed and bound complexes detected using SuperSignal Pico Luminescent as substrate and luminescence signals were measured using Fluostar Optima.
Background: In an ELISA, binding on a coated surface is turned into a signal by an enzyme label.

Test [3] addresses T3, human CEACAM1, recombinant (R&D Systems #2244-CM-050) (human, UniProt P13688 35-428).
T3 construct: also called hCEACAM-1
T3 sequence (looked up): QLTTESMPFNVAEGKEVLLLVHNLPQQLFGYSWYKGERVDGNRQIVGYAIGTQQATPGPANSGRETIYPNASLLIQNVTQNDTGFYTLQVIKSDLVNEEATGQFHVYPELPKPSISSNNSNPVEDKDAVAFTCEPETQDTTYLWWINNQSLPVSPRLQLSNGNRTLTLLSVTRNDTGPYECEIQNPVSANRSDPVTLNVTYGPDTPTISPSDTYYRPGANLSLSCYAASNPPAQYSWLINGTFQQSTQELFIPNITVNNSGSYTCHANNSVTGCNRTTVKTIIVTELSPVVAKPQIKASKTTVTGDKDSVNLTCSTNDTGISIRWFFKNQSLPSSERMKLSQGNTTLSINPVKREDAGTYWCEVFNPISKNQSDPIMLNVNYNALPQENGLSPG
Described as above. The protocol:
as §1

B1: AC_05330 (bispecific antibody)
heavy 1: not shown
light: not shown
heavy 2: EVQLLESGGGLVQPGGSLRLSCAASGFTFSSYAMSWVREAPGKGLEWVSAISGSGGSTYYADSVKGRFTISRDNSKNTLYLQMNSLRAEDTAVYYCARYYGGYYSAWMDYWGQGTLVTVSSASTKGPSVFPLAPSSKSTSGGTAALGCLVKDYFPEPVTVSWNSGALTSGVHTFPAVLQSSGLYSLSSVVEVPSSSLGTQTYICNVNHKPSNTKVDKKVEPKSC
notes: as AC_05293
In test [1], B1 registered a dissociation constant Kd of 0.45 nM, a koff of 1.6e-05 s⁻¹ and a kon of 35000 M⁻¹ s⁻¹.

B2: AC_05083 (antibody, V domains shown)
VH: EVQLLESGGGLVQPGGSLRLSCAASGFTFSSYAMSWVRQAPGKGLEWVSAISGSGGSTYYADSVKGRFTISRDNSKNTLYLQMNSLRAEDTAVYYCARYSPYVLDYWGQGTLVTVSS
VL: DIQMTQSPSSLSASVGDRVTITCRASQSIRGYLNWYQQKPGKAPKLLIYAASSLQSGVPSRFSGSGSGTDFTLTISSLQPEDFATYYCQQPSYPSLFTFGQGTKLEIK
For the molecule B2, the binding result in test [2] and in test [3] was “binds” in each case.

B3: AC_05293 (bispecific antibody)
heavy 1: not shown
light: DIQMTQSPSSLSASVGDRVTITCRASQSISSYLNWYQEKPGKAPKLLIYAASSLQSGVPSRFSGSGSGTDFTLTISSLQPEDFATYYCQQYGRNPPTFGQGTKLEIKRTVAAPSVFIFPPSDEQLKSGTASVVCYLNNFYPREAKVQWKVDNALQSGNSQESVTEQDSKDSTYSLWSTLTLSKADYEKHKVYACEVTHQGLSSPVTKSFNRGEC
heavy 2: EVQLLEQSGAELVRPGTSVKISCKASGYAFTNYWLGWVKERPGHGLEWIGDIFPGSGNIHYNEKFKGKATLTADKSSSTAYMQLSSLTFEDSAVYFCARLRNWDEPMDYWGQGTTVTVSSASTKGPSVFPLAPSSKSTSGGTAALGCLVKDYFPEPVTVSWNSGALTSGVHTFPAVLQSSGLYSLSSVVEVPSSSLGTQTYICNVNHKPSNTKVDKKVEPKSC
In test [1], B3 came in with a Kd of 76 nM, a koff of 0.00062 s⁻¹ and a kon of 8300 M⁻¹ s⁻¹.

B4: AC_05087 (antibody, V domains shown)
VH: EVQLLESGGGLVQPGGSLRLSCAASGFTFSSSYMGWVRQAPGKGLEWVSSIGSGSYSTSYADSVKGRFTISRDNSKNTLYLQMNSLRAEDTAVYYCARYPPVPFPPHLDYWGQGTLVTVSS
VL: DIQMTQSPSSLSASVGDRVTITCRASQSISSYLNWYQQKPGKAPKLLIYAASSLQSGVPSRFSGSGSGTDFTLTISSLQPEDFATYYCQQAGNPHTFGQGTKLEIK
In the case of B4, the binding result in test [2] and in test [3] was “binds” throughout.

B5: AC_05084 (antibody, V domains shown)
VH: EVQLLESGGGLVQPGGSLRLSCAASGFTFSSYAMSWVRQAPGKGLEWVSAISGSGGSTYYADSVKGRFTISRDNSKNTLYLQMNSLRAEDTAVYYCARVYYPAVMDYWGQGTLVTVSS
VL: B4 VL with A91V, G92D, N93G, P94L, H95F
In the case of B5, the binding result in test [2] and in test [3] was “no binding (tested: 10 µg/ml)” throughout.

B6: AC_05085 (antibody, V domains shown)
VH: EVQLLESGGGLVQPGGSLRLSCAASGFTFGSYYMYWVRQAPGKGLEWVSSIGGYSGSTYYADSVKGRFTISRDNSKNTLYLQMNSLRAEDTAVYYCARNTPFPGGSGLDYWGQGTLVTVSS
VL: B4 VL
For B6, the binding result in test [2] and in test [3] was “no binding (tested: 10 µg/ml)” each time.

B7: AC_05098 (antibody, V domains shown)
VH: EVQLLESGGGLVQPGGSLRLSCAASGFTFGSYYMSWVRQAPGKGLEWVSGISGYGYYTGYADSVKGRFTISRDNSKNTLYLQMNSLRAEDTAVYYCARNGYGVIDYWGQGTLVTVSS
VL: B4 VL with S30R, S31D, A91G, G92T, N93F, H95F
Turning to B7, the binding result in test [2] and in test [3] was “no binding (tested: 10 µg/ml)” in each case.

B8: AC_05082 (antibody, V domains shown)
VH: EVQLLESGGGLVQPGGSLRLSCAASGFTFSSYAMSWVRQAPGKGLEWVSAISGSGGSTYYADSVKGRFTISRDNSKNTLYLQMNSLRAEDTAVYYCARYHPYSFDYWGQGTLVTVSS
VL: B4 VL
Consider B8, for which the binding result in test [2] and in test [3] was “no binding (tested: 10 µg/ml)” each time.

B9: AC_05100 (antibody, V domains shown)
VH: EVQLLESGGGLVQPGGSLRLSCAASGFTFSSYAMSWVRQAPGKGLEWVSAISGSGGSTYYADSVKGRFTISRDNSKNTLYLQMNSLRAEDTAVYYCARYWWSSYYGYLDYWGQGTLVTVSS
VL: B4 VL
On to B9, for which the binding result in test [2] and in test [3] was “no binding (tested: 10 µg/ml)” throughout.

B10: AC_05095 (antibody, V domains shown)
VH: B4 VH with P101S, P106S
VL: B4 VL
For the molecule B10, the binding result in test [2] and in test [3] was “binds” each time.

B11: AC_05092 (antibody, V domains shown)
VH: B4 VH with P101S
VL: B4 VL with Y32D
Turning to B11, the binding result in test [2] and in test [3] was “no binding (tested: 10 µg/ml)” each time.

B12: AC_05096 (antibody, human IgG1, kappa, V domains shown)
VH: B4 VH with P101S, P105R
VL: DIQMTQSPSSLSASVGDRVTITCRASQSISSYLNWYQQKPGKAPKLLIYAASSLQSGVPSRFSGSGSGTDFTLTISSLQPEDFATYYCQQAGNPHTFGQGTKLEIKR
As for B12, the values for the binding result in test [2] and in test [3] were “binds” and “no binding (tested: 10 µg/ml)”, respectively.

B13: AC_05300 (bispecific antibody)
heavy 1: not shown
light: ELVMTQSPSSLTVTAGEKVTMSCKSSQSLLNSGNQKNYLTWYQEKPGQPPKLLIYWASTRESGVPDRFTGSGSGTDFTLTISSVQAEDLAVYYCQNDYSYPLTFGAGTKLEIKRTVAAPSVFIFPPSDEQLKSGTASVVCYLNNFYPREAKVQWKVDNALQSGNSQESVTEQDSKDSTYSLWSTLTLSKADYEKHKVYACEVTHQGLSSPVTKSFNRGEC
heavy 2: EVQLLESGGGLVQPGGSLRLSCAASGFTFSSYAMSWVREAPGKGLEWVSGIGSYGGGTYYADSVKGRFTISRDNSKNTLYLQMNSLRAEDTAVYYCARYVNFGMDYWGQGTLVTVSSASTKGPSVFPLAPSSKSTSGGTAALGCLVKDYFPEPVTVSWNSGALTSGVHTFPAVLQSSGLYSLSSVVEVPSSSLGTQTYICNVNHKPSNTKVDKKVEPKSC
notes: as AC_05293
On to B13, for which, in test [1], the Kd came out at 8.5 nM, the off-rate (koff) was 0.0046 s⁻¹ and the kon was determined as 540000 M⁻¹ s⁻¹.
